Measurements from the RNAGym collection of RNA variant scans (doi:10.1073/pnas.2313332121).

B1: TPR t1 (parent)
chain: GACCAAUCUGCCCUCAGAGCUCGAGAACAUCUUCGGAUGCAGAGGAGGCAGGCUUCGGUGGCGCGAUAGCGCCAACGUCCUCAACCUCCAAUGCAUCCCACCACAUGAUGAUGCCUGAAGAGCCUUGGUUUUUUG

Variants of: B1
Test: polymerase ribozyme fitness, log enrichment relative to wild type (log ratio); higher = more active; in vitro selection for triplet polymerase activity
In short: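 After PCR construction and transcription, each subunit's mutant library from a heterodimeric triplet polymerase ribozyme was annealed with a biotinylated primer, the partner subunit and triplets. Incubation was frozen, at −7 °C, and extended constructs were gel-excised, bound to streptavidin beads and amplified by RT-PCR, in one selection round done in triplicate. Fitness is the logarithm of a genotype's enrichment divided by that of the wild type, from inverse-variance-weighted replicate averages of Illumina-sequenced inputs and outputs. The base of the logarithm is 2, and genotypes needed ≥10 input reads and ≥1 read per output.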

Variant | polymerase ribozyme fitness (log ratio)
C11U U78C C94U | -1.61
C12A G45U C56U U78A | -1.36
C12A A83U U106G | -2.32
C12G A46G C53G A95G A119G | 0.414
C12G A18G A74U U78G U87A | -4.81
C12A A37C G71A A108G U112G | -7.07
C11U G77A | -1.92
C12A A43C G61U | -0.92
C12G A29U G117A | -2
C12A A43G C70A U81A G120U | -5.53
C12A U96A | -1.84
C12A A27C C40G G63C G120A | -2.65
C12A C28U C40U A41U | -4
C12G A43G C79A U112A G117C | -4.33
C12A C124G G127U | 1.3
C12A C49U C70G | -4.56
C12A U116A | -4.12
C12A U59G | -0.837
C12A U59C | -0.85
C12A U109A | -5.14
C11U G23A G61A G113U | -6.08
C12A C56A | -1.02
C12A C56U | 0.0114
C12A | -0.413

Variant | polymerase ribozyme fitness (log ratio)
C12G | 0.29
C11U U96A | -1.94
C12G A16U C72U G93U U112A | -3.35
C12A C70A C80U | -2.16
C11U U32C C97G | -4.82
C12A G110U | -1.4
C12A G36U G63A | -2.46
C12A G47C C70U G120C | -1.04
C12A C85A | -2.59
C12A G45U G58C C98U C101A | -3.82
C12A A16C | -2.4
C11U G51A C56G C124A | -0.733
C11U U55C G61A A121G | 1.39
C12A C56A C62U A91U G128C | -5.72
C12G A27G A68G | -4.94
C12A A46C U59A | -0.649
C12A G51U A90G | -2.76
C12A C22A U59A G61C | -5.61
C12A C31U G35A C104G C115U | -6.08
C12A C22U U96A | -4.9
C12A G57A G60A | -0.307
C11U G93C G122A | -0.0927
C12G A37U G61C | -1.78
C12A C72G A91C U96A | -2.9

Variant | polymerase ribozyme fitness (log ratio)
C12A C13A | -1.97
C12A C13G | -0.617
C12A C72G U133C | -1.17
C12A C13U G71A G93A | -0.733
C11U G63U A84U C89U | -2.9
C12A C123U G128C | 0.474
C12A A16U A50U A74U | -5.14
C11U G57A G58U G63U G77U C82G U106A | -3.25
C12A C28A G39C A111C G122A | -5.3
C12A G117C | -3
C11U G120A U129G | -1.66
C12A U21C C40U G42A A50C | -3.16
C12A C15G C53U C88U U112A G113U C123A U129C | -3.91
C12A U106A | -0.467
C12A A27G G71U G93A | -6.11
C11U G61C G120U G122U | -1.06
C11U G42U C101A | -3.62
C12A G36U C64U A83G G113A | -4.18
C12A U21A A46C C73A U87G | -0.648
C12A G36U G48A G63C C123A | -0.6
C12A C49U G69C C80G C115G | -8.79
C12A A37U | -1.73
C12A A37G | -0.967
C12A C53G U92C | -1.45

Variant | polymerase ribozyme fitness (log ratio)
C11U G65U C82U C104A U112A | -6.27
C12A G107A | -5.12
C11U G47U C62U G71U C82A A95U | -2.79
C12A C72U C102U C114G | -5.72
C12A C53U U106G G113C G127C | -5.83
C11U G117C | -2.78
C11U G117U | -2.72
C11U G117A | -2.36
C11U G110C | -2.8
C11U G110A | -1.63
C11U G110U | -1.5
C12A A84U G110A C114U | -5.31
C12A C79A | -1.35
C12A A18G C20U A37U A50C C64U U92A | -4.28
C11U U116C | -1.29
C12A C15G C56G | -2.69
C12A G69U G128C | -1.9
C12A C62A U112A C123G | -1.09
C12G A43U C70G C124G | -4.85
C12A U87A | -0.82
C12A U54A U92G U132C | -3.79
C11U G47C G71U U92G G113C | -5.32
C11U U125G | -1.31
C11U U125A | -0.822

Variant | polymerase ribozyme fitness (log ratio)
C12A A27U | -3.57
C11U G45C C88A | -0.484
C11U G36A C101U | -4.98
C12G A18C C88U | -2.16
C12A G51A C62U U96A | -5.39
C12G A26U G45U U106A G127U | -4.14
C12A G36C G60A | -1.66
C12A G42U G60A U87A G113A | -4.01
C12A G93A | -1.39
C12A C40U | -1.32
C12A C40G | -1.7
C11U U30A | -4.5
C12A A37G U55G | -0.496
C12A G36A G61A U92A C123U | -3.77
C12G A18C C56U C80U U112G | -4.94
C12A C13U U54A C72U C89A | -1.99
C11U G60A U106C G128C | -3.82
C12A A37U U78C C82U A108G | -3.38
C11U G25U | -5.82
C11U U59G G93C U129C | -1.93
C11U G71U | 0.863
C12A C34G G120A | -4.45
C11U G93C U112A G127C U134A | -0.699
C12A C15A C73U C82U | -3.66

Variant | polymerase ribozyme fitness (log ratio)
C11U G69A A84C | -2.03
C12G A43U G61A A84U | -1.52
C12A G48U G71C | -1.56
C12A C114U | -1.85
C12A C114A | -1.3
C12G A43U C70A C79U C82A U96A | -5.11
C12A C102U | -2.56
C11U G39U A43G | -3.16
C12A G61U C98U U125A | -1.77
C12A G17A G61U | -4.75
C12A C82G | -1.17
C11U G52A C94G C104A A121G | -2
C12A C15A G47U C62U U78C A83U G120C U133A | -2.07
C12A A18C U81G G120A | -5.16
C11U U92C G127A | -3.76
C11U G61C | -1.64
C11U G61U | -0.841
C12A G39U G117A | -2.74
C11U G45C U81G | -4.91
C12A A43G C62U C124G G127U | -0.505
C12G A43C G48A | -2.3
C12G A29C | -1.57
C12G A29U | -1.54
C12A C53G U54C A121C | 1.77

Variant | polymerase ribozyme fitness (log ratio)
C12A A26U | -3.83
C12A G69A A90U U109A C115A | -7.7
C11U U59A C73A A91G A118U | -2.19
C12A A91G U112A G127C | -1.8
C11U G122A G128C U131C | -0.489
C11U G42U | -2.17
C12A C49U G113C U133C | -3.24
C12A C20A | -2.37
C12A C20U | -0.43
C12A U21C C72G | -0.431
C12A A37U U78A A83G U106C | -3.17
C11U G51C C85U | -4.53
C12A A29C A84C | -3.21
C12A C34U | -4.77
C12A G135U | -1.23
C12A C15A U132A | -3.86
C12A G113C U126C | -3.59
C11U G58A G69U | -0.296
C12A G42A | -1.63
C12G A18U | -1.46
C12A A43U A46U G71U | -3.4
C12A C49G U109C A111U | -6.35
C12A G71U C89U C101U C123U G128C | -1.52
